Laboratory results reported in patent US20240116985A1 (published 2024).
Values belong to the binder of their own block, whether it stands above or below them. Starred links: 1 amine or outer side, 2 acyl side, 3 side chain; linkers in the order of their positions; H or OH if unused. Positions of bridges follow the written chain, without caps; N, C: chain ends. Non-standard residues stand in square brackets, D forms with d. Primed or numbered codes have the meaning given here. PyrS2″ = (S)-3-amino-1-((pent-4-en-1-yloxy)carbonyl)pyrrolidine-3-carboxylic acid (stapling residue), C=CCCCOC(=O)N1CC[C@@](N[*:1])(C(=O)[*:2])C1; B5(4) = 2,2-bis(4-pentenyl)glycine = 2-amino-2-(pent-4-en-1-yl)hept-6-enoic acid (stitching residue), C=CCCCC(CCCC=C)(N[*:1])C(=O)[*:2]; B5(3) = 2,2-bis(4-pentenyl)glycine (stitching residue), C=CCCCC(CCCC=C)(N[*:1])C(=O)[*:2]; AcLys″ = N6-acetyl-lysine, CC(=O)NCCCC[C@H](N[*:1])C(=O)[*:2]; Phe(3-COOH) = N[C@@H](Cc1cccc(C(=O)O)c1)C(=O)O; 2F3MeF = Cc1cccc(C[C@H](N[*:1])C(=O)[*:2])c1F; Phe(2-CF3) = N[C@@H](Cc1ccccc1C(F)(F)F)C(=O)O; AcLys = CC(=O)NCCCC[C@H](N[*:1])C(=O)[*:2]; Phe(2-Cl) = N[C@@H](Cc1ccccc1Cl)C(=O)O; Met(O2) = CS(=O)(=O)CC[C@H](N)C(=O)O; Bta = N[C@@H](Cc1csc2ccccc12)C(=O)O; Lys(iPr) = CC(C)NCCCC[C@H](N)C(=O)O; αAllylPro = C=CC[C@@]1(C(=O)O)CCCN1; tBuAla = CC(C)(C)C[C@H](N)C(=O)O; 3Thi = N[C@@H](Cc1ccsc1)C(=O)O; Cha = N[C@@H](CC1CCCCC1)C(=O)O; PyrS2(4) = not defined here; hSer = N[C@@H](CCO)C(=O)O; Nle = CCCC[C@H](N)C(=O)O

Columns and labels:
Assay in all cases: cell-based or functional assay
[1] = molecular target: T1, B-cat-Halo (beta-catenin HaloTag construct expressed in HEK293 cells) (UniProt P35222 1-781)
T1 sequence (looked up): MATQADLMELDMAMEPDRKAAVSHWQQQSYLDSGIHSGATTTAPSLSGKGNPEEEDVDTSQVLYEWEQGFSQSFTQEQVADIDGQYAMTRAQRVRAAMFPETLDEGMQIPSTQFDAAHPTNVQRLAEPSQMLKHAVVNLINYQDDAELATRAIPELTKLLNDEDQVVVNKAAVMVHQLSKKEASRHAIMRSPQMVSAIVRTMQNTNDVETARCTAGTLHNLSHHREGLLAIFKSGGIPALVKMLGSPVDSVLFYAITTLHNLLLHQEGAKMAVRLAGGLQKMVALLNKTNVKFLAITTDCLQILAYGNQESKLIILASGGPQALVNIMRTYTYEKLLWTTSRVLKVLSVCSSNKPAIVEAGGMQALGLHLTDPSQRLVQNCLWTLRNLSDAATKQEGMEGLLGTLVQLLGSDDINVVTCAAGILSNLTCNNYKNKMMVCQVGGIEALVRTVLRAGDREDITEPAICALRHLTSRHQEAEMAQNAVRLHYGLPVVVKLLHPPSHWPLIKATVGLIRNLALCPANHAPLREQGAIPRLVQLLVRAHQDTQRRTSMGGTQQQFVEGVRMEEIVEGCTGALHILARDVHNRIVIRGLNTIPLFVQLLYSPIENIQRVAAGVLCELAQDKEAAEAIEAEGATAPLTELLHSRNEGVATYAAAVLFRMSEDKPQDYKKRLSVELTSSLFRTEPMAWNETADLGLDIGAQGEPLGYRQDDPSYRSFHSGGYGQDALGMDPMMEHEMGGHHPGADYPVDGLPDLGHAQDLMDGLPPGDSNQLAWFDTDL

B-cat-Halo = molecular target: T2, B-cat-Halo (UniProt P35222 1-781, HaloTag NanoBRET 618 Ligand bound in the assay)
T2 sequence (looked up): T1 sequence (looked up)

Bcat-Halo = molecular target: T3, Bcat-Halo (UniProt P35222 1-781)
T3 sequence (looked up): T1 sequence (looked up)

B1: I-2539 (peptide)
peptide: Ac-[αAllylPro]D[tBuAla][B5(4)]D[Phe(3-COOH)]AAF[AcLys][PyrS2″][2F3MeF][Bta][Me2Gln]-NH2
modifications: staple 1-4, 4-11; not fully specified; printed as Ac-PL3-Asp-Npg-B5-Asp-3COOHF-Ala-Ala-Phe-AcLys-PyrS2-2F3MeF-BztA-Me2Gln-NH2
NanoBRET Abs IC50 (B-cat-Halo): 3.6 µM

B2: I-2535 (peptide)
peptide: Ac-[αAllylPro]D[tBuAla][B5(4)]D[Phe(3-COOH)]AAF[Me2Gln][PyrS2″][2F3MeF][Bta][Me2Gln]-NH2
modifications: staple 1-4, 4-11; not fully specified; printed as Ac-PL3-Asp-Npg-B5-Asp-3COOHF-Ala-Ala-Phe-Me2Gln-PyrS2-2F3MeF-BztA-Me2Gln-NH2
NanoBRET Abs IC50 (B-cat-Halo): 3.7 µM

Binder: Ac-[αAllylPro]D[tBuAla][B5(4)]D[Phe(3-COOH)]AAFL[PyrS2″][Phe(2-CF3)][Bta][MorphGln]-NH2 (staple 1-4, 4-11) [I-2541]
NanoBRET Abs IC50 (B-cat-Halo): 4.7 µM

Binder: Ac-[αAllylPro]D[tBuAla][B5(4)]D[Phe(3-COOH)]AAFL[PyrS2″][Phe(2-CF3)][Bta][Met(O2)]-NH2 (staple 1-4, 4-11) [I-2063]
NanoBRET Abs IC50 [1]: 3.5 µM

Binder: Ac-[αAllylPro]D[tBuAla][B5(4)]D[Phe(3-COOH)]SAFL[PyrS2″][Phe(2-CF3)][Bta]A-NH2 (staple 1-4, 4-11) [I-2059]
NanoBRET Abs IC50 [1]: 4.8 µM

Binder: Ac-[αAllylPro]D[tBuAla][B5(4)]D[Phe(3-COOH)]AAFF[PyrS2″][Phe(2-CF3)][Bta][Me2Gln]-NH2 (staple 1-4, 4-11) [I-2534]
NanoBRET Abs IC50 (B-cat-Halo): 4.4 µM

Binder: Ac-[αAllylPro]D[tBuAla][B5(4)]D[Phe(3-COOH)]TAFL[PyrS2″][Phe(2-CF3)][Bta]A-NH2 (staple 1-4, 4-11) [I-2060]
NanoBRET Abs IC50 [1]: 9.6 µM

B5: I-2538 (peptide)
peptide: Ac-[αAllylPro]D[tBuAla][B5(4)]D[Phe(3-COOH)]AAF[MorphGln][PyrS2″][Phe(2-CF3)][Bta][Me2Gln]-NH2
modifications: staple 1-4, 4-11; not fully specified; printed as Ac-PL3-Asp-Npg-B5-Asp-3COOHF-Ala-Ala-Phe-MorphGln-PyrS2-2F3MeF-BztA-Me2Gln-NH2
NanoBRET Abs IC50 (B-cat-Halo): 3.5 µM

Binder: Ac-[αAllylPro]D[tBuAla][B5(4)]D[Phe(3-COOH)]NAFL[PyrS2″][Phe(2-CF3)][Bta]A-NH2 (staple 1-4, 4-11) [I-2058]
NanoBRET Abs IC50 [1]: 3.9 µM

Binder: Ac-[αAllylPro]D[tBuAla][B5(4)]D[Phe(3-COOH)]QAFV[PyrS2″][3Thi][Bta]A-NH2 (staple 1-4, 4-11) [I-2054]
NanoBRET Abs IC50 [1]: 2.4 µM

Binder: Ac-[αAllylPro]D[tBuAla][B5(4)]D[Phe(3-COOH)]AAFF[PyrS2″][2F3MeF][Bta][dA]-NH2 (staple 1-4, 4-11) [I-2095]
NanoBRET Abs IC50 (Bcat-Halo): 10.5 µM

Binder: Ac-[αAllylPro]D[tBuAla][B5(4)]D[Phe(3-COOH)]AAFL[PyrS2″][Phe(2-Cl)][Bta][Met(O2)]-NH2 (staple 1-4, 4-11) [I-2062]
NanoBRET Abs IC50 [1]: 3 µM

Binder: Ac-[αAllylPro]N[Cha][B5(4)]DQHAFN[PyrS2″]F[Bta]A-NH2 (staple 1-4, 4-11) [I-2069]
NanoBRET Abs IC50 [1]: > 20 µM

B8: I-2536 (peptide)
peptide: Ac-[αAllylPro]D[tBuAla][B5(4)]D[Phe(3-COOH)]AAF[Me2Gln][PyrS2″][2F3MeF][Bta][Me2Gln]-NH2
modifications: staple 1-4, 4-11; not fully specified; printed as Ac-PL3-Asp-Npg-B5-Asp-3COOHF-Ala-Ala-Phe-Me2Gln-PyrS2-2F3MeF-BztA-Me2Gln-NH2
NanoBRET Abs IC50 (B-cat-Halo): 4.5 µM

Binder: Ac-[αAllylPro]D[tBuAla][B5(4)]D[Phe(3-COOH)]QAFL[PyrS2″][3Thi][Bta]L-NH2 (staple 1-4, 4-11) [I-2056]
NanoBRET Abs IC50 [1]: 6.5 µM

Further lines, results first:

NanoBRET Abs IC50 [1]: > 20 µM
Binder: Ac-[αAllylPro]N[Cha][B5(4)]DQ[Lys(iPr)]AFN[PyrS2″]F[Bta]F-NH2 (staple 1-4, 4-11) [I-2068]

NanoBRET Abs IC50 (Bcat-Halo): 9.7 µM
Binder: Ac-[αAllylPro]D[tBuAla][B5(4)]D[Phe(3-COOH)]AAFF[PyrS2(4)][3Thi][Bta][dA]-NH2 (staple 1-4, 4-11; reading uncertain) [I-2094]

NanoBRET Abs IC50 [1]: 11.8 µM
Binder: Ac-[αAllylPro]D[tBuAla][B5(4)]D[Phe(3-COOH)][Met(O2)]AFL[PyrS2″][3Thi][Bta]A-NH2 (staple 1-4, 4-11) [I-2064]

NanoBRET Abs IC50 (B-cat-Halo): 4 µM
Binder: Ac-[αAllylPro]D[tBuAla][B5(4)]D[Phe(3-COOH)]AAF[Nle][PyrS2″][Phe(2-CF3)][Bta][MorphGln]-NH2 (staple 1-4, 4-11) [I-2542]

NanoBRET Abs IC50 (B-cat-Halo): 6.2 µM
Binder: Ac-[αAllylPro]D[tBuAla][B5(4)]D[Phe(3-COOH)]AAF[Nle][PyrS2″][2F3MeF][Bta][Me2Gln]-NH2 (staple 1-4, 4-11) [I-2533]

NanoBRET Abs IC50 [1]: 10.5 µM
B3: I-2055 (peptide)
peptide: Ac-[αAllylPro]D[tBuAla][B5(4)]D[Phe(3-COOH)]QAFL[PyrS2(4)][3Thi][Bta]V-NH2
modifications: staple 1-4, 4-11; reading uncertain; also: printed as Ac-PL3-Asp-Npg-B5-Asp-3COOHF-Gln-Ala-Phe-Leu-PyrS2-3Thi-BztA-Val-NH2

NanoBRET Abs IC50 [1]: 6 µM
Binder: Ac-[αAllylPro]D[tBuAla][B5(3)]D[Phe(3-COOH)]QAFF[PyrS2″][3Thi][Bta]A-NH2 (staple 1-4, 4-11) [I-2052]

NanoBRET Abs IC50 [1]: > 20 µM
Binder: Ac-[αAllylPro]N[Cha][B5(4)]DQQAFN[PyrS2″]F[Bta][hSer]-NH2 (staple 1-4, 4-11) [I-2067]

NanoBRET Abs IC50 [1]: > 20 µM
Binder: Ac-[αAllylPro]N[Cha][B5(4)]DQ[Lys(iPr)]AFN[PyrS2″]F[Bta]A-NH2 (staple 1-4, 4-11) [I-2065]

NanoBRET Abs IC50 (B-cat-Halo): 2.9 µM
B4: I-2537 (peptide)
peptide: Ac-[αAllylPro]D[tBuAla][B5(4)]D[Phe(3-COOH)]AAF[MorphGln][PyrS2″][2F3MeF][Bta][Me2Gln]-NH2
modifications: staple 1-4, 4-11; not fully specified; printed as Ac-PL3-Asp-Npg-B5-Asp-3COOHF-Ala-Ala-Phe-MorphGln-PyrS2-2F3MeF-BztA-Me2Gln-NH2

NanoBRET Abs IC50 (B-cat-Halo): 3.5 µM
B6: I-2540 (peptide)
peptide: Ac-[αAllylPro]D[tBuAla][B5(4)]D[Phe(3-COOH)]AAF[AcLys″][PyrS2″][Phe(2-CF3)][Bta][Me2Gln]-NH2
modifications: staple 1-4, 4-11; not fully specified; printed as Ac-PL3-Asp-Npg-B5-Asp-3COOHF-Ala-Ala-Phe-AcLys-PyrS2-2F3MeF-BztA-Me2Gln-NH2

NanoBRET Abs IC50 [1]: 8.3 µM
Binder: Ac-[αAllylPro]D[tBuAla][B5(3)]D[Phe(3-COOH)]TAFL[PyrS2″][3Thi][Bta]A-NH2 (staple 1-4, 4-11) [I-2051]

NanoBRET Abs IC50 [1]: 5 µM
B7: I-2053 (peptide)
peptide: Ac-[αAllylPro]D[tBuAla][B5(3)]D[Phe(3-COOH)]QAFA[PyrS2(4)][3Thi][Bta]A-NH2
modifications: staple 1-4, 4-11; reading uncertain; also: printed as Ac-PL3-Asp-Npg-B5-Asp-3COOHF-Gln-Ala-Phe-Ala-PyrS2-3Thi-BztA-Ala-NH2

NanoBRET Abs IC50 [1]: > 20 µM
Binder: Ac-[αAllylPro]N[Cha][B5(4)]DQQAFN[PyrS2″]F[Bta]A-NH2 (staple 1-4, 4-11) [I-2070]
